PMC10869471, “Pectin methylesterase 31 is transcriptionally repressed by ABI5 to negatively regulate ABA-mediated inhibition of seed germination”

Tests used:
His-ABI5 [1] = molecular target: T1, His-ABI5 (UniProt Q9SJN0 1-442); test: EMSA; suppressed by 50x and 100x unlabeled probe; Chemiluminescent EMSA Kit (Beyotime); binding buffer, salt, pH and temperature not stated (protein eluted in 100 mM HEPES, 500 mM imidazole, pH 7.5); settings: protein: recombinant; tags: His (pET-30a); label: biotin; blunt
T1 sequence: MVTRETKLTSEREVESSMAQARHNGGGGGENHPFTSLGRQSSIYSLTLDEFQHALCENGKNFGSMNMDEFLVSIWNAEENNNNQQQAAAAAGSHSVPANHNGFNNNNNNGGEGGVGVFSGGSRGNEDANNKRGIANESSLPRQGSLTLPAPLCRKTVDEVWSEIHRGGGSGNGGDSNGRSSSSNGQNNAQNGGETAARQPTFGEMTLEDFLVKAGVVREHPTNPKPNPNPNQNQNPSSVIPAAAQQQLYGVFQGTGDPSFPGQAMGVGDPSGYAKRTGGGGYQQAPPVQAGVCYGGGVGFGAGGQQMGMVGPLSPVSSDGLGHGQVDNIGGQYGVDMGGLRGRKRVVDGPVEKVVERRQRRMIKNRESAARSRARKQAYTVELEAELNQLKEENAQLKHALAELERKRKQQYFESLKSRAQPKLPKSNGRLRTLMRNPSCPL

His-ABI5 [2] = molecular target: T1, His-ABI5; test: competition; 100x unlabeled mutated competitor against labeled N1; Chemiluminescent EMSA Kit (Beyotime); binding buffer, salt, pH and temperature not stated (protein eluted in 100 mM HEPES, 500 mM imidazole, pH 7.5); settings: protein: recombinant; tags: His (pET-30a); blunt

B1: proPME31 probe (50 bp) (dsDNA)
DNA 1: TTGAACAAAGAACTGTTACACGTAGAACCAAACAATATGATGAAAAGTAT
DNA 2: ATACTTTTCATCATATTGTTTGGTTCTACGTGTAACAGTTCTTTGTTCAA
binding result (His-ABI5 [1]): binds

B2: proPME31 mutated probe (mComp) (dsDNA)
DNA 1: TTGAACAAAGAACTGTTAAAAAAAGAACCAAACAATATGATGAAAAGTAT
DNA 2: ATACTTTTCATCATATTGTTTGGTTCTTTTTTTAACAGTTCTTTGTTCAA
binding result (His-ABI5 [2]): no binding
